T1: ALCAM (Activated leukocyte cell adhesion molecule) (Homo sapiens (Human), UniProt Q13740 28-583)
T1 construct: Native protein on cancer cell lines; also called CD166 antigen; CD166
T1 sequence: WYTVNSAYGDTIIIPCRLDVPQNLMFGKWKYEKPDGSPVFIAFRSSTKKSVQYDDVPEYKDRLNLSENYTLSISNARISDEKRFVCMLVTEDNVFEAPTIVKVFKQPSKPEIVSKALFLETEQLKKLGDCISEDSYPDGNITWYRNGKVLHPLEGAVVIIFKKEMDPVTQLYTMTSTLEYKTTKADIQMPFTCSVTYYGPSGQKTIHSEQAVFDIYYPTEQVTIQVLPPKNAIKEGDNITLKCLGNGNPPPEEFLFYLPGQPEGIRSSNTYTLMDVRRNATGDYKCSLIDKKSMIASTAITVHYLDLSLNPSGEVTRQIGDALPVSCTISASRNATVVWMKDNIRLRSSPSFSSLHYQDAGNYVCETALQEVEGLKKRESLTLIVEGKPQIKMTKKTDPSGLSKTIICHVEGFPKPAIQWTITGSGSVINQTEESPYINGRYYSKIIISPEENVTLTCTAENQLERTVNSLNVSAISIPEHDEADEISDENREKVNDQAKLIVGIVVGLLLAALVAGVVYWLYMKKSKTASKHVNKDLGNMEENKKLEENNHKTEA

B1: 015-209 antibody (antibody, V domains shown)
VH: EVQLVESGAEVKKPGESLKISCKGSGYSFTSYWIGWVRQMPGKGLEWMGIIYPGDSDTRYSPSFQGQVTISADKSISTAYLQWSSLKASDTAMYYCARLAVGAYQYYFDYWGQGTLVTVSR
VL: QTVVTQEPSFSVSPGGTVTLTCGLSSGSVSTSYYPSWYQQTPGQAPRTLIYSTNTRSSGVPDRFSGSILGNKAALTITGAQADDESDYYCVLYMGSGISVFGGGTKLTVLG
notes: Clone of the scFv-CL-cp3 phage library
B2: 086-036 antibody (antibody, V domains shown)
VH: QVQLVQSGAEVKKPGESLKISCKGSGYSFTSYWIGWVRQMPGKGLEWMGIIYPGDSDARYSPSFQGQVTISADKSISTAYLQWSSLKASDTAMYYCARLTGSSYYDSSGYSSYGMDVWGQGTTVTVSR
VL: B1 VL with Y38F, K106Q
notes: as for B1
B3: 086-035 antibody (antibody, V domains shown)
VH: QVQLVQSGAEVKKPGESLKISCEGSGYTFTSYWIGWVRQMPGKDLEWMGIIYPGDSDTRYSPSFQGQVTISVDKSISTAYLQWSSLKASDTAMYYCARHDVVDGYNTGMDVWGQGTTVTVSR
VL: B1 VL with S11T, Y51S, K72R, S99W
notes: as for B1
B4: 086-182 antibody (antibody, V domains shown)
VH: QVQLVQSGAEVKKPGESLKISCKGSGYSFTSYWIGWVRQMPGKGLEWMGIIYPGDSDTRYSPSFQGQVTISADKSISTAYLQWSSLKASDTAMYYCARHGMTSGYVAHNDYWGQGTLVTVSR
VL: B1 VL with S99W
notes: as for B1
B5: 086-061 antibody (antibody, V domains shown)
VH: QVQLVQSGAEVKKPGESLKISCKGSGYSFTSYWIGWVRQMPGKGLEWMGIIYPGDSDTRYSPSFQGQVTISADKSISTAYLQWSSLKASDTAMYYCARHNSNYYYYYMDVWGKGTLVTVSR
VL: B1 VL
notes: as for B1
B6: 086-032 antibody (antibody, V domains shown)
VH: QVQLVQSGSEVKKPGASVKVSCKTSGYIFTDYYMHWVRQAPGKGLEWMGWINPNSGGTYYAQKFHGRVTMTSDTSISTAYMELSSLRSDDTAIYYCAREDYDILTGYYPASGHGDYWGQGTLVTVSR
VL: QAVVTQEPSLTVSPGGTVTLTCASSTGAVTSGFLANWFQQKPGQTPRSLIYKTSNKHPWTPARFSGSLLGGKAALTLSGVQPEDEADYYCLLLSGGAWVFGGGTKLSVLG
notes: as for B1
B7: 086-138 antibody (antibody, V domains shown)
VH: B6 VH with Y107F
VL: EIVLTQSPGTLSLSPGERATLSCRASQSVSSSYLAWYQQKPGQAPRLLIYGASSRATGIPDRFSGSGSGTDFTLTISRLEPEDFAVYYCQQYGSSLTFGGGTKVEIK
notes: as for B1
B8: 015-044 antibody (antibody, V domains shown)
VH: QVQLQESGPGLVKPSETLSLTCTVSGGSISSSSYYWGWIRQPPGKGLEWIGSIYYSGSTYYNPSLKSRVTISVDTSKNQFSLKLSSVTAADTAVYYCAMRAYGSGSYDYWGQGTLVTVSR
VL: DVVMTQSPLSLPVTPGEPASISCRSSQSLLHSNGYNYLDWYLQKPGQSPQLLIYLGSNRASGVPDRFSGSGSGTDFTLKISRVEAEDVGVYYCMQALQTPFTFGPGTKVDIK
notes: as for B1
B9: 053-216 antibody (antibody, V domains shown)
VH: EVQLVESGGGLIRPGGSLRLSCTASGFTFSSYTMNWVRQAPGKGLEWLSYISGGSGTKFYADSVKGRFTVSRDNAKNSLYLEMNSLRPEDTAVYYCALVSYSSPGFDYWGQGTLVTVSS
VL: SYELTQPPSVSVSPGQTASITCSGDKLGDKYVYWYQQKPGQSPILLIFQDSERPSGIPERFSGSNSGNTATLTISGTQAMDEADYYCQAWDSSAAVFGGGTKLTVLG
notes: as for B1
B10: 015-143 antibody (antibody, V domains shown)
VH: QVQLVQSGAEVKKPGASVKVSCKASGYTFTSYGISWVRQAPGQGLEWMGWISAYNGNTNYAQKLQGRVTMTTDTSTSTAYMELRSLRSDDTAVYYCARAFRDWGSLRDYWGQGTLVTVSR
VL: QSVLTQPPSVSAAPGQKVTISCSGSSSNIGNNYVSWYQQLPGTAPKLLIYDNNKRPSGIPDRFSGSKSGTSATLGITGLQTGDEADYYCGTWDSSLSAVVFGGGTKLTVLG
notes: as for B1
B11: 015-136 antibody (antibody, V domains shown)
VH: QVQLVQSGSELKKPGASVKVSCKASGYIFTRYGINWVRQAPGQGLEWMGWINTNTGNPTYAQGFTGRVVFSLDTSVSTAYLQISSLKAEDTAMYYCAISSGFGYYFDYWGQGTLVTVSR
VL: DIQMTQSPSSVSASVGDRVTITCRASQSISRWLAWYQQKPGKAPKFLIYAGSSLQSGVPSRFSGSGSGTDFTLTISSLQPEDFATYYCQQTNSFPLTFGGGTKVEIK
notes: as for B1
B12: 039-016 antibody (antibody, V domains shown)
VH: EVQLVESGGNLVQPGGSLRLSCAASGFTFSRYWMTWVRQAPGKGLEWISSVSSSGSTIYYADSVKGRFTISRDNAKNSLYLQMNSLRVEDTAVYYCARDYWPGWYFDLWGRGTLVTVSR
VL: QAVLTQPSSLSASPGASASLTCTFRSDISVGSYRIYWYQQKPGSPPQFLLKYTSDSDKQQGSGVPSRFSGSKDVSANAGILLISGLQSEDEADYYCMTWHNTASVFGGGTKLAVLG
notes: as for B1
B13: 075-110 antibody (antibody, V domains shown)
VH: B12 VH with N10G, A23S, R31N, V51I
VL: B12 VL
notes: as for B1
B14: 015-102 antibody (antibody, V domains shown)
VH: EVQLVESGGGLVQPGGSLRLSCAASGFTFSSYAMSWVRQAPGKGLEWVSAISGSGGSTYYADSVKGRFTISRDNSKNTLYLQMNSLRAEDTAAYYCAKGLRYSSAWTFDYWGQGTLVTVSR
VL: QSALTQPASVSGSPGQSITISCTGTSSDVGGYNYVSWYQQHPGKAPKLMIYDVSNRPSGVSNRFSGSKSGNTASLTISGLQAEDEADYYCSSYTSSSTPVVFGGGTKLTVLG
notes: as for B1
B15: 075-024 antibody (antibody, V domains shown)
VH: QVQLVQSGAEVKKPGASVKVSCKASGYTFTSYGISWVRQAPGQGLEWMGWISAYNGNTNYAQKLQGRVTMTTDTSTSTAYMELRSLRSDDTAVYYCARGGAFDIWGQGTTVTVSR
VL: QSVLTQPPSVSGAPGQRVTISCTGSSSNIGAGYHVYWYQQLPGKAPKLLIYVNSNRPSGVPDRFSGSKSGTSASLAITGLQADDEADYYCQSYDSSLSGRVFGGGTKLTVLG
notes: as for B1
B16: 062-101 antibody (antibody, V domains shown)
VH: QVQLVQSGAEVKKPGASVKVSCKASGYTFTSYYMHWVRQAPGQGLEWMGIINPSGGSTSYAQKFQGRVTMTRDTSTSTVYMELSSLRSEDTAVYYCARELSAATAFDIWGQGTMVTVSR
VL: ETTLTQSPFSVSASVGDRVTITCRASQYISRWLAWYQQRPGKAPKLLIYAAASLQSGVPSRFSGSGSGTDFTLTISSLQPEDFATYYCQQANSFPVTFGQGTRLEIK
notes: as for B1
B17: 084-103 antibody (antibody, V domains shown)
VH: QVQLVQSGAEVKKPGSSVKVSCKASGGTFSSYAISWVRQAPGQGLEWMGWMNPNSGNTGYAQKFQGRVTMTRNTSISTAYMELSSLRSEDTAVYYCARDVGIGVFDYWGQGTLVTVSR
VL: SYVLTQPPSVSVAPGKTARITCGGNNIGSKSVHWYQQKPGQAPVLVIYYDSDRPSGIPERFSGSNSGNTATLTISRVEAGDEADYYCQVWDSSSDHVVFGGGTKLTVLG
notes: as for B1
B18: 029-143 antibody (antibody, V domains shown)
VH: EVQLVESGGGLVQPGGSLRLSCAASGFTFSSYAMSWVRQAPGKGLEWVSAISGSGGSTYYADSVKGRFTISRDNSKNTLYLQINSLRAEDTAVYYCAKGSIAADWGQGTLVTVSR
VL: SSELTQDPAVSVALGQTVRITCQGDSLRSYYASWYQQKPGQAPVLVIYGKNNRPSGIPDRFSGSSSGNTASLTITGAQAEDEADYYCNSRDSSGNVVFGGGTKLTVLG
notes: as for B1
B19: 029-067 antibody (antibody, V domains shown)
VH: QVQLQQSGAEVKKPGASVKVSCKASGYTFTTYYMHWVRQAPGQGLEWMGIINPSGENTNYAQKFQGRVTMTRDTSTTTVYMELSSLRSEDTAVYYCARSFIGTRGGGLDVWGQGTTVTVSR
VL: QSVLTQPPSVSGAPGQRVNISCAGSSSNIGAGYDVHWYQQIPGTAPKLLMYGNSNRPSGVPDRFSGSKSGASASLAITRLQAEDEADYYCQSYDSSLSGSRVFGTGTKVTVLG
notes: as for B1
B20: 045-134 antibody (antibody, V domains shown)
VH: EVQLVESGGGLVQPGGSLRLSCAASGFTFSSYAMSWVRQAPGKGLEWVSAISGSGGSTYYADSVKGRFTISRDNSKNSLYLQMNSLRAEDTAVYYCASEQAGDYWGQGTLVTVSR
VL: QSVLTQPPSASGTPGQRVTISCSGSSSNIGSNYVYWYQQLPGTAPKLLIYRNNQRPSGVPDRFAGSKSGTSATLGITGLQTGDEADYYCGTWDSSLSAGVFGGGTKLTVLG
notes: as for B1
B21: 062-109 antibody (antibody, V domains shown)
VH: QVQLVQSGAEVKKPGASVKVSCKASGYTFTSYGISWVRQAPGQGLEWMGWISAYNGNTNYAQKLQGRVTMTTDTSTSTAYMELRSLRSDDTAVYYCARVGYYYYYGMDVWGQGTTVTVSR
VL: QSALTQPASVSGSPGQSITISCTGTSSDVGSYNLVSWYQQHPGKAPKLMIYEGSKRPSGVSNRFSGSKSGNTASLTISGLQAEDEADYYCSSYTSSSTWVFGGGTKLTVLG

Where a chain is given by its changes, count along the chain named.

The first assay concerns the target T2, HER2 (Homo sapiens (Human), UniProt P04626 23-1255).
T2 construct: Native protein on cancer cell lines; also called erbB-2; ErbB2
Kind of assay: antigen assigned by the filing's classifying and identification method; details for this clone not given.
In the case of B1, the binding result is “binds”. B2: the binding result is reported as “binds”. Still for that read-out and setting: for B3 the value was “binds”; for B4, “binds”. Take B5: the binding result is on record as “binds”. Regarding B6, the binding result is “binds”.

With B7, the binding result was “binds”. Regarding B8, the binding result is “binds”. Consider B9, for which the binding result is “binds”.

With B10, the binding result was “binds”. Still for that read-out and setting: as for B11, the entry is “binds”. Same read-out and setting: as for B12, the entry is “binds”; as for B13, “binds”. Still for that read-out and setting: for B14 the value was “binds”; for B15, “binds”.

The next assay addresses T1, ALCAM (Activated leukocyte cell …). Described as above.
In the case of B16, the binding result is reported as “binds”. The same measure, in the same setting: for B17 the value was “binds”. Still for that read-out and setting: for B18 the value was “binds”.

For the molecule B19, the binding result is listed as “binds”. For B20, the binding result is recorded as “binds”. Same read-out and setting: for B21 the value was “binds”.

The values are drawn from US20090203538A1 (INSTITUTE FOR ANTIBODIES, published 2009).
